T1: NS-SPIK (Normal Secreted serine protease inhibitor Kazal) (Homo sapiens (Human), UniProt P00995 24-79)
T1 construct: also called Normal Secreted SPIK
T1 sequence: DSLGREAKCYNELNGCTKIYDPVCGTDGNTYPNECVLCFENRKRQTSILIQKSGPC

B1: IM-E2 (antibody, V domains shown)
VH: QSVKESEGGLFKPTDTLTLTCTVSGFSLSAYAISWVRQAPGNGLEWIGAINSGGSAYYANWAKSRSTITRNTNLNTVTLKMTSLTAADTATYFCAREDIYDYGGAFDPWGPGTLVTVST
VL: AYDMTQTPASVEVTVGGTVTIKCQASQGISSYLSWYQQKPGQPPKLLIYAATTLVSGVSSRFKGSGSGTQFTLTISGVECADAATYYCQQDYTTSNVDNTFGGGTEVVVKG
notes: Rabbit monoclonal antibody
B2: IM-A1 (antibody, V domains shown)
VH: QSVKESEGGLFKPTDTLTLTCTVSGFSLSSNAISWVRQAPGNGLEWIGAIGSSGSTYYASWAKSRSTVTRNTNLNTVTLKMTSLTAADTATYFCARWENIGYTNVRLDLWGQGTLVTVSS
VL: AYDMTQTPASVEVAVGGTVTIKCQASQSISTALAWYQQKPGQPPKLLIYGASTLASGVSSRFKGSGSGTQFTLTISGVECADAATYYCQQGYSTSDVDNAFGGGTEG
notes: Rabbit monoclonal antibody; also called I-A1
B3: IM-G7 (antibody, V domains shown)
VH: QSVKESEGGLFKPTDTLTLTCTVSGFSLSSNVISWVRQAPGKGLEWIGDIYVSGNTDYASWAKSRSTITRNANLNTVTLKMTSLTAADTATYFCARYDMSSDAFDPWGPGTLVTVSS
VL: AYDMTQTPASVEVAVGGTVTIKCQASQNIGSYLSWYQHKPGQRPRLLMYRASTLASGVSSRFKGSGSGTEFTLTISGVQCDNAATYYCQQGYTNSGVDNTFGGGTEVVVKG
notes: Rabbit monoclonal antibody
B4: IM-A6 (antibody, V domains shown)
VH: QSVKESEGGLFKPTDTLTLTCTVSGFSLSSYAISWVRQAPGNGLEWIGRINSGGATDYASWARSRSTITRDTNLNTVTLQMTSLTAADTATYFCAKEEYSYGGAYGMWGPGTLVTVSS
VL: AYDMTQTPASVSAAVGGTVTIKCQASESISTYLSWLQQKPGQPPKLLIYKASTLASGVPSRFKGSGSGTEFTLTISGVQCDDAATYYCQQDYTISNVGNVFGGGTEVVVKG
notes: Rabbit monoclonal antibody; also called I-A6
B5: IM-B10 (antibody, V domains shown)
VH: QSVKESEGGLFKPTDTLTLTCTVSGFSLSSYGVSWVRQAPGKGLEWIGSIWSGGTTDYASWAKSRSTITRNTNENTVTLKVTSLTAADTATYFCARGGYDYGYASNIWGPGTLVTVSS
VL: AYDMTQTPASVEVAVGGTVTIKCQASESISSYLSWYQQKPGQPPKLLIYRASTLASGVPSRFSGSGSGTEFTLTISDGQCDDAATYYCQQGYSVSNVDNIFGGGTEVVVKG
notes: Rabbit monoclonal antibody; also called IM4-B10
B6: IM-C6 (antibody, V domains shown)
VH: QSVKESEGGLFKPTDALTLTCTVSGFSLSSYAISWVRQAPGSGLEWIGAINTYGGTYYASWAKSRSTITRNTNENTVTLKMTSLTAADTATYFCARDFDSDAYTSASGGMDPWGPGTLVTVSS
VL: AYDMTQTPASVEVAVGGTVTIKCQASQSINNYLSWYQQIPGQPPKLLIYRASTLASGVSSRFKGSGSGTQFTLTISGVQCADAATYYCQQGYTSNVDNVFGGGTEVVVKG
notes: Rabbit monoclonal antibody
B7: IM-D3 (antibody, V domains shown)
VH: QSVKESEGGLFKPTDTLTLTCTVSGFSLSSYAIGWVRQAPGNGLEWIGTIVTSGIPYYANWAKSRSTITRNTNLNTVTLKMTSLTAADTATYFCARNLDPAYSTTRLDLWGQGTLVTVSS
VL: AYDMTQTPASVSEPVRGTVTIKCQASQSISTALAWYQQKPGQPPKLLIYAASYLASGVPSRFSGSGSGTEFTLTISDLECADAATYYCHQGYSASNVDNTFGGGTEGGVKG
notes: Rabbit monoclonal antibody
B8: IM-D5 (antibody, V domains shown)
VH: QSVKESEGGLFKPTDTLTLTCTVSGFSLSSYAISWVRQAPGNGLEWIGAIGKSGSAYYASWAKSRSTITRNTNLNTVSLKMTSLTAADTATYFCARWDSVGWTDARLDLWGQGTLVTVSS
VL: AYDMTQTPASVEVAVGGTVTIKCQASQSISTALAWYQQKPGQRPKLLIYGASKLASGVSSRFSGSGSGTEFTLTISGVECADAATYYCQQGYETSNVDNAFGGGTEVVVKG
notes: Rabbit monoclonal antibody
B9: IM-F5 (antibody, V domains shown)
VH: QSVKESEGGLFKPTDTLTLTCTVSGFSLSIYGVSWVRQAPGNGLEWIGIIYASGSADYASWAKSRSTITRNTNLNTVTLKMTSLTAADTATYFCAREDDTYGYTSSIWGPGTLVTVSS
VL: AYDMTQTPASVSAAVGGTVTIKCQASQSISSYLNWYQQKPGQPPKRLIYRASTLASGVSSRFKGSGSGTQFTLTISGVECADAATYYCQQDYSSNNIDNTFGGGTEVVVKG
notes: Rabbit monoclonal antibody
B10: IM-G6 (antibody, V domains shown)
VH: QSVKESEGGLFKPTDTLTLTCTVSGFSLSSYPISWVRQAPGNGLEWIGDIYASGSILYASWATGRSTITRNTNLNTVTLKMTSLTAADTATYFCARVSYSGGTDIWGPGTLVTVSS
VL: AYDMTQTPASVEVAVGGTVTIKCQASEDIESYLAWYQQKPGQPPKLLIYRASTLPSGVPSRFKGSGSGTEFTLTISDLECADAATYYCQQDYSSSNVDNTFGGGTEVVVKG
notes: Rabbit monoclonal antibody

These binders were tested against AS-SPIK (Abnormal Secreted serine protease inhibitor Kazal) (Homo sapiens (Human)) (UniProt P00995) (assay: sandwich ELISA, S2-3 medium, complex captured on polyclonal anti-SPIK plate, anti-rabbit-HRP/TMB).

Row | Binder | OD
1 | B1 | 1.39 OD

These binders were tested against AS-SPIK (Abnormal Secreted serine protease inhibitor Kazal) (Homo sapiens (Human)) (UniProt P00995) (assay: sandwich ELISA, HCC patient serum (serum AS-SPIK), complex captured on polyclonal anti-SPIK plate, anti-rabbit-HRP/TMB).

Row | Binder | OD
2 | B1 | 1.48 OD

The binders below were run against T1, NS-SPIK (Normal Secreted serine …) (assay: ELISA on a plate immobilised with NS-SPIK from pancreatic cells, OD450nm; antibody concentration not given).
Experimental: Ten monoclonal antibodies described here were generated from rabbit. Briefly, rabbit were immunized with the recombinant AS-SPIK which contain different subsets of 23 extra amino acids (SEQ ID NO: 81). The blood was tested after three or four time imbursements by ELISA. Briefly, blood from immunized rabbits were reacted with plate coated with recombinant AS-SPIK. After washing, the color was developed by incubation of the plate with an anti-rabbit antibody labeled with HRP (horseradish peroxidase), and the optical density was measured after reaction with substrate TMB. The rabbit which is positive in test (produced antibody) was sacrificed. The monoclonal antibody was then established and further screened with ELISA using the plates immobilized with partially purified AS-SPIK from S2-3 cells, a cell line expresses high amount of AS-SPIK by integrated entire SPIK gene, Lu et. al Tumor-associated protein SPIK TATI suppresses serine protease dependent cell apoptosis, Apoptosis, 2008 13(4), 483-494 and NS—SPIK from pancreatic cells. Finally, 10 monoclonal antibodies which strongly bind AS-SPIK but not NS-SPIK were selected.

Row | Binder | binding result
3 | B1 | no binding
4 | B2 | no binding
5 | B3 | no binding
6 | B4 | no binding
7 | B5 | no binding
8 | B6 | no binding
9 | B7 | no binding
10 | B8 | no binding
11 | B9 | no binding
12 | B10 | no binding

From patent US20220273810A1 (IMCARE BIOTECH, published 2022)
